# Test results from patent publication US20050008628A1.
# Target: mutant voltage gated potassium channel (Kv1.3)
# Experiment: cell-based or functional assay
substance,measurement,value
Margatoxin (from UniProt P40755 1-39) (peptide),"local ventricular effective refractory period (ERP) at graft site after MTx, one rat (170 ms before MTx)",100 ms
